Sequences and labels used below:
B1: Azoarcus group I ribozyme (parent)
chain: GUGCCUUGCGCCGGGAAACCACGCAAGGGAUGGUGUCAAAUUCGGCGAAACCUAAGCGCCCGCCCGGGCGUAUGGCAACGCCGAGCCAAGCUUCGGCGCCUGCGCCGAUGAAGGUGUAGAGACUAGACGGCACCCACCUAAGGCAAACGCUAUGGUGAAGGCAUAGUCCAGGGAGUGGCGAAAGUCACACAAACCGG

The series covers variants of B1. Put plainly: reverse-splicing fitness (ratio to wild type); higher = more active; in vitro selection; Mg2+ level not given. In short, it runs like this: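 An in vitro group I ribozyme library with randomized positions was T7-transcribed and gel-purified. In triplicate, 10 pmol RNA in EPPS pH 7.5 was reacted with 50 pmoles of a 30-nt RNA substrate for 1 h at 37 °C across several added MgCl2 levels (1–48 mM), then stopped with EDTA. Products were reverse transcribed from a substrate-complementary primer, PCR-amplified and sequenced (HiSeq 4000). Fitness is a variant's read proportion after selection over that before, normalised to wild type.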
In the case of C82G A111C A120C A145G C150U C169A U176A, the reverse-splicing fitness came to 0.0153. Take C82G A111C A120C A145G C150U C169A U176C: the reverse-splicing fitness came out at 0.0142. With C82G A111C A120C A145G C150U C169A U176G the figure was 0.00796; with C82G A111C A120C A145C C150A C169A U176C, 0.00933; with C82G A111C A120C A145C C150A C169A U176G, 0.00693.

C82G A111C A120C A145C C150A C169A U176A: the reverse-splicing fitness stood at 0.0156. With C82G A111C A120C A145U C150A C169G the figure was 0.0083; with C82G A111C A120C A145U C150A C169A, 0.00835; with C82G A111C A120C A145U C150A C169U, 0.011.

For the variant C82G A111C A120C A145G C150G C169G, the reverse-splicing fitness was found to be 0.00708. The result for C82G A111C A120C A145G C150G C169A reads 0.00885; that for C82G A111C A120C A145G C150G C169U, 0.00874. With C82G A111C A120C C150A C169G the figure was 0.00905; with C82G A111C A120C C150A C169U, 0.0123; with C82G A111C A120C C150A C169A, 0.0108. The result for C82G A111C A120C C150A C169G U176G reads 0.00766; that for C82G A111C A120C C150A C169G U176A, 0.0183; that for C82G A111C A120C C150A C169G U176C, 0.0225. C82G A111C A120C A145U C150U C169G: the reverse-splicing fitness amounted to 0.00788. The result for C82G A111C A120C A145U C150U C169A reads 0.0102; that for C82G A111C A120C A145U C150U C169U, 0.0116. The result for C82G A111C A120C A145U C169U reads 0.0143; that for C82G A111C A120C A145U C169A, 0.00731; that for C82G A111C A120C A145U C169G, 0.00877. With C82G A111C A120C A145G C150G C169U U176C the figure was 0.0117.

C82G A111C A120C A145G C150G C169U U176G: the reverse-splicing fitness came to 0.0072. Regarding C82G A111C A120C A145G C150G C169U U176A, the reverse-splicing fitness stood at 0.0116. The result for C82G A111C A120C A145G C150G C169G U176A reads 0.0118. The result for C82G A111C A120C A145G C150G C169G U176C reads 0.0138.

C82G A111C A120C A145G C150G C169G U176G: the reverse-splicing fitness came out at 0.0062. The result for C82G A111C A120C A145U C150G C169A reads 0.00941. The result for C82G A111C A120C A145U C150G C169U reads 0.00897; that for C82G A111C A120C A145U C150G C169G, 0.00765; that for C82G, 0.499.

With C82G A111C A120C A145C C150G C169U U176A, the reverse-splicing fitness was found to be 0.00824. With C82G A111C A120C A145C C150G C169U U176G the figure was 0.00572; with C82G A111C A120C A145C C150G C169U U176C, 0.0123; with C82A A145U U176G, 0.157. The result for C82G A111C A120C A145G reads 0.053; that for C82G A111C A120C A145U, 0.0547.

Regarding C82G A111C A120C A145C, the reverse-splicing fitness worked out at 0.0447. With C82G A111C A120C A145G C150G C169A U176A the figure was 0.0142; with C82G A111C A120C A145G C150G C169A U176G, 0.0086; with C82G A111C A120C A145G C150G C169A U176C, 0.0127. The result for C82A U176A reads 0.407; that for C82A U176C, 0.484; that for C82A U176G, 0.12.

Turning to C82G A111C A120C A145U C150A C169U U176G, the reverse-splicing fitness turned out to be 0.00817. With C82G A111C A120C A145U C150A C169U U176A the figure was 0.0126; with C82G A111C A120C A145U C150A C169U U176C, 0.0133.

In the case of C82G A111C A120C C150A U176G, the reverse-splicing fitness worked out at 0.00842.

In the case of C82G A111C A120C C150A U176A, the reverse-splicing fitness was 0.0125. For the variant C82G A111C A120C C150A U176C, the reverse-splicing fitness is 0.0203. With C82G A111C A120C C150U U176G the figure was 0.00767. Regarding C82G A111C A120C C150U U176A, the reverse-splicing fitness is 0.0157. As to C82G A111C A120C C150U U176C, the reverse-splicing fitness came out at 0.0226. On to C82G A111C A120C A145G C150U C169U, for which the reverse-splicing fitness came out at 0.0124. With C82G A111C A120C A145G C150U C169A the figure was 0.0101; with C82G A111C A120C A145G C150U C169G, 0.00759; with C82G A111C A120C A145G C150G U176G, 0.00667.

For C82G A111C A120C A145G C150G U176A, the reverse-splicing fitness is 0.00652. With C82G A111C A120C A145G C150G U176C the figure was 0.0113; with C82G A111C A120C A145C C150U C169U U176G, 0.0064; with C82G A111C A120C A145C C150U C169U U176A, 0.0131. With C82G A111C A120C A145C C150U C169U U176C the figure was 0.0133. The result for C82A C150A C169A reads 0.0109. Take C82A C150A C169G: the reverse-splicing fitness is 0.00927. The result for C82A C150A C169U reads 0.00897; that for C82G A111C A120C A145C U176G, 0.00711. With C82G A111C A120C A145C U176C the figure was 0.0241; with C82G A111C A120C A145C U176A, 0.0166. Regarding C82G A111C A120C A145G C150A U176G, the reverse-splicing fitness was 0.00711. As to C82G A111C A120C A145G C150A U176C, the reverse-splicing fitness turned out to be 0.0234. With C82G A111C A120C A145G C150A U176A the figure was 0.0118. The result for C82A C150G C169A U176C reads 0.0111; that for C82A C150G C169A U176G, 0.00678. The result for C82A C150G C169A U176A reads 0.0112. Turning to C82G A111C A120C C150U, the reverse-splicing fitness came out at 0.0277. The result for C82G A111C A120C C150G reads 0.00951; that for C82G A111C A120C C150A, 0.0114; that for C82G A111C A120C A145U U176A, 0.0196. With C82G A111C A120C A145U U176G the figure was 0.00884. With C82G A111C A120C A145U U176C the figure was 0.0239.

The values above are taken from the RNAGym collection of RNA variant scans (doi:10.1093/molbev/msab373).
